Measurements: paper PMC4318453

B1: BKPyV agnoprotein, purified full-length (natural protein)
chain: MVLRQLSRQASVKVGKTWTGTKKRAQRIFIFILELLLEFCRGEDSVDGKNKSTTALPAVKDSVKDS

Legend:
heat shock protein 40 = heat shock protein 40 (UniProt P25685); experiment: FRET or BRET; positive control of the FRET experiment, results not shown
[1] = target: Proliferating cell nuclear antigen, purified recombinant (UniProt P12004)

UniProt P25685, sequence (P25685 whole entry): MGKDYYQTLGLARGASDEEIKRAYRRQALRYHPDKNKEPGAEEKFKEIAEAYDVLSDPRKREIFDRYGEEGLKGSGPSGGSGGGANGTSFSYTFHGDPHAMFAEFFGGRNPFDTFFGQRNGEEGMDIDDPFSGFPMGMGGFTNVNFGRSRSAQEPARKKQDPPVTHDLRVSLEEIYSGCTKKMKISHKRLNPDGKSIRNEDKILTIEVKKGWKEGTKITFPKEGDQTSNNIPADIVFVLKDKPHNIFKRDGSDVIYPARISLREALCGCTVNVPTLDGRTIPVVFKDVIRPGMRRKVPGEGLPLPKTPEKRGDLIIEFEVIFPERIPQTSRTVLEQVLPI

| Molecule | FRET efficiency (heat shock protein 40) [%] | PCNA:pol δ-mediated in vitro DNA synthesis (polydA/oligodT, [3H]dTTP incorporation) with increasing amounts of agnoprotein [1] [%] |
| --- | --- | --- |
| mitogen-activated protein kinase MK5 (from UniProt Q8IW41 1-473) (enzyme) | 15 | – |
| B1 | – | 50 |
